B1: RAD51 (parent)
chain: RFLRMLLRLADEFGVAVVITNQVV
B2: BCL2L13 (parent)
chain: QSLDQEILLKVKTEIEEELKSLDK

Variants of: B1
Assay: protein stability index of a GFP-peptide fusion (GPS, HEK-293T) (PSI 1-6); higher = more stable
Settings: c terminus: a fixed tail appended
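Also: lentivirally expressed fusions sorted by FACS into six bins by GFP to DsRed ratio, PSI derived from sequencing read proportions per bin multiplied by bin number.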

Protein stability index: each site, then its substitutions
E12: K 2.42 | L 2.75 | M 2.33 | N 1.68 | P 2.01 | Q 3.13 | R 3.5 | S 2.08 | T 1.46 | V 1.94
F13: A 1.3 | D 3.29 | E 2.74 | G 2.04 | H 1.86 | K 2.2 | L 2.56 | M 2.21 | N 1.26 | P 1.25 | Q 1.61 | R 2.34 | S 1.59 | T 1.97 | W 3.5 | Y 1.72
G14: A 2.83 | C 2.4 | D 2.97 | E 1.92 | F 4.07 | H 1.82 | K 1.96 | L 3.4 | M 1.74 | N 2.03 | P 1.33 | Q 1.69 | R 2.06 | S 1.53 | T 1.94 | V 2.18 | Y 3.29
V15: A 1.79 | C 3.16 | D 1.77 | E 2.08 | F 2.82 | G 1.98 | H 2.6 | I 2.51 | K 2.75 | L 2.06 | M 1.56 | N 2.31 | P 3.13 | Q 3.05 | R 2.32 | S 3.16 | W 2.43 | Y 1.8
A16: C 1.43 | D 3.29 | F 1.55 | H 3.12 | I 2.24 | K 2.4 | L 2.2 | M 3.12 | N 3.11 | P 1.08 | Q 1.87 | R 2.25 | S 2.34 | T 1.79 | V 1.34 | W 2.44 | Y 1.93
V17: A 1.67 | C 1.06 | D 2.06 | E 2.58 | F 2.19 | G 3.41 | H 2.9 | I 3.4 | K 2.65 | L 2.96 | M 2.49 | N 2.35 | P 1.86 | Q 1.25 | R 1.52 | S 1.36 | T 2.11 | W 2.41 | Y 2.83
V18: A 3.03 | C 2.1 | D 2.79 | E 2.44 | F 1.24 | G 2.45 | H 3.04 | I 1.87 | K 3.09 | L 2.62 | M 3.82 | N 3.8 | P 2.32 | Q 2.87 | R 2.94 | S 3.17 | T 3.38 | W 2.75
I19: A 3.02 | C 2 | D 2.76 | F 2.18 | G 1.58 | H 1.25 | K 2.52 | L 1.45 | N 2.67 | P 1.47 | Q 1.37 | R 3 | S 1.95 | T 2.84 | V 1.63 | W 1.96 | Y 2.79
T20: A 2.68 | C 1.8 | D 2.52 | E 1.53 | F 1.3 | G 1.98 | I 2.75 | K 3.31 | L 2.3 | M 1.44 | N 1.21 | P 2.72 | Q 2.26 | R 2.34 | S 3.06 | V 2.82 | W 3.05 | Y 1.97
N21: A 2.52 | C 1.32 | D 4.17 | E 1.08 | F 2.06 | G 3.1 | H 1.43 | I 1.43 | K 2.3 | L 1.97 | M 4.31 | P 1.7 | Q 1.9 | R 1.68 | S 1.19 | T 2.02 | V 2.43 | W 1.76 | Y 2.19
Q22: A 1.52 | C 2.3 | D 1.65 | E 3.17 | F 1.29 | G 2.92 | H 1.9 | I 1.43 | K 1.39 | L 1.68 | M 1.65 | N 1.85 | P 1.99 | R 2.08 | S 2.47 | T 1.44 | V 2.24 | Y 2.77
V23: A 2.66 | C 2.69 | D 2.64 | E 1.9 | F 3.02 | H 2.07 | I 3.7 | K 2.73 | L 2.38 | M 2.37 | N 1.9 | P 2.23 | Q 1.98 | R 1.09 | S 2.56 | T 1.51 | W 1.98 | Y 1.5
V24: A 1.89 | C 2.11 | D 2.48 | E 1.41 | F 2.68 | G 2.11 | H 3.01 | I 3.73 | K 1.45 | L 2.03 | M 2.4 | N 1.86 | P 2.06 | Q 2.83 | R 2.55 | S 1.44 | T 1.83 | W 1.25 | Y 1.6

Variants of: B2
Assay: as above
Settings: c terminus: a fixed tail appended

Protein stability index: each site, then its substitutions
E16: Q 5.04 | L 3.23 | A 4.6 | T 4.72 | H 4.4 | I 4.35 | P 4.69 | M 3.09
L3: I 4.72 | D 5.72 | M 5.47 | A 5.71 | H 5.54 | P 4.59 | E 5.63
I7: H 5.07 | K 5.51 | S 5.69 | N 5.33 | G 5.33 | V 5.62
S21: D 5.47 | F 4.72 | R 4.42 | W 3.57
L9: G 5.13 | V 5.26 | Q 5.37 | P 4.87
L19: I 4.65 | A 5.68 | P 5.64 | R 5.57 | K 5.19 | C 5.02
D23: R 3.78 | T 4.47 | I 3.3 | F 2.14 | H 3.7 | L 2.2
S2: F 4.24 | V 4.16 | L 3.95 | E 5.52 | K 4.24
D4: A 4.27 | R 3.63 | Q 4.66 | W 2 | T 3.5
Q1: W 3.55 | E 4.67 | N 4.98 | M 4.16
Q5: G 4.95 | M 4.05 | H 3.64 | V 3.62 | F 2.83 | Y 3.38
I15: V 5.08 | F 5.36 | L 4.85 | Y 4.88 | W 4.45 | K 5.41
L22: W 4.34 | M 5.12 | F 5.37 | C 5.34 | H 5.47 | T 5.13
L8: D 5.83 | N 5.9 | Q 5.42 | Y 3.76 | C 5.55 | E 5.41
V11: E 5.63 | G 5.36 | F 4.83 | R 5.33
K20: Q 4.63 | V 5.11 | S 5.33 | R 5.18 | I 4.56
E17: Q 4.56 | T 4.1 | M 4.08 | W 3.51
E6: G 4.78
K12: M 1.81 | C 4.43 | Y 4.27
E14: D 4.7 | S 4.99
K24: C 4.53 | Q 4.73 | T 4.79 | Y 4.25
K10: C 4.16 | H 4.66 | G 4.83 | A 4.98
E18: Q 3.88 | S 4.61 | H 4.05
T13: H 4.71

Reference: the supplement of paper PMC10567573
